US20220033501A1 (SHANGHAI PHARMAEXPLORER, published 2022)

T1: human TIM-3 ECD (antigen protein of the affinity test) (human, UniProt Q8TDQ0 22-200)
T1 sequence: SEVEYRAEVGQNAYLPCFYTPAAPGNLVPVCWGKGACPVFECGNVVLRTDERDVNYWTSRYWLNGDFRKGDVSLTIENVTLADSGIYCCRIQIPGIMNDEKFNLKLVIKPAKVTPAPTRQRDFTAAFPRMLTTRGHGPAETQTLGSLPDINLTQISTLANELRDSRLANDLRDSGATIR

T2: human TIM-3 protein on human PBMC (human, UniProt Q8TDQ0 22-301)
T2 sequence: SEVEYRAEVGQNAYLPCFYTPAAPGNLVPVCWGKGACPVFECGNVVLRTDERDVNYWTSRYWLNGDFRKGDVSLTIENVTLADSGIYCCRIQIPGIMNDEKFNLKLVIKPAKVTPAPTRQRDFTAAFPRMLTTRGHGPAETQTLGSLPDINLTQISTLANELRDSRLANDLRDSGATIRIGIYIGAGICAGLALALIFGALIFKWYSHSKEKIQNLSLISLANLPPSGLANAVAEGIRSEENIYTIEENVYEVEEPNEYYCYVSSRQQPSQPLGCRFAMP

T3: murine TIM-3 protein with hFc tag (mTIM-3-hFc protein) (mouse; human, UniProt Q8VIM0 29-191)
T3 construct: Made in HEK293 cells; also called mouse TIM-3 extracellular domain protein; not shown: human IgG Fc fragment (hFc) of the pCpC vector
T3 chain: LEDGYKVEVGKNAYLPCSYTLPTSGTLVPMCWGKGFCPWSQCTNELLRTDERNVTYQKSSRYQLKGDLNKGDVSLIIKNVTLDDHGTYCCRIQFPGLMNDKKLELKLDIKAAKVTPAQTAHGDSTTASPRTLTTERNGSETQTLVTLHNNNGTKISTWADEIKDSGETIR


How the values were obtained:
[1] = target: T1, human TIM-3 ECD (antigen protein of the …); assay: AHC sensor kinetics, antibody captured on sensor, antigen protein in solution, global 1:1 fit
Protocol: First, AHC sensor was selected, and the sensor was balanced with buffer solution for 10 min, then the antibody to be tested was diluted to 5 μg/ml with buffer solution, and the antibody was solidified with the sensor for 3-5 min, with a signal value of 1-2 nm. The sensor was balanced again with buffer solution for 3 minutes, and then the antigen protein was diluted to 100 nM (the highest concentration was tentatively 100 nM) to bind and dissociate the antibody coupled by the sensor. If enough signal value was obtained, the antigen protein was diluted by several concentration gradients to analyze the binding and dissociation of antibody and antigen. At that end of each cycle, the sensor surface was regenerated with 10 mM, pH 1.5 Glycine. The kinetic rate constant needed to be subtracted the blank control, and the data was fitted with the global fit analysis method 1:1 combination model. The dissociation equilibrium rate constant (KD) was calculated according to the following formula: KD=kd/ka.

[2] = target: T2, human TIM-3 protein on human PBMC; assay: cell-based or functional assay
[3] = target: T3, murine TIM-3 protein with hFc tag …; assay: ELISA, coated mTIM-3-hFc

Row | Kd [1] [nM] | koff [1] [s⁻¹] | kon [1] [M⁻¹ s⁻¹] | IFN-γ production, lymphocyte activation assay (donor Y), antibody 0.1 µg/ml, N = 1 [2] [pg/mL] | IFN-γ production, lymphocyte activation assay (donor Y), antibody 0.1 µg/ml, N = 2 [2] [pg/mL] | IFN-γ production, lymphocyte activation assay (donor Y), antibody 1 µg/ml, N = 1 [2] [pg/mL] | IFN-γ production, lymphocyte activation assay (donor Y), antibody 1 µg/ml, N = 2 [2] [pg/mL] | IFN-γ production, lymphocyte activation assay (donor Y), antibody 10 µg/ml, N = 1 [2] [pg/mL] | IFN-γ production, lymphocyte activation assay (donor Y), antibody 10 µg/ml, N = 2 [2] [pg/mL] | IFN-γ production, lymphocyte activation assay (donor Y), antibody concentration head printed '0' (fifth), N = 1 [2] [pg/mL] | IFN-γ production, lymphocyte activation assay (donor Y), antibody concentration head printed '0' (fifth), N = 2 [2] [pg/mL] | IFN-γ production, lymphocyte activation assay (donor Y), antibody concentration head printed '0' (fourth), N = 1 [2] [pg/mL] | IFN-γ production, lymphocyte activation assay (donor Y), antibody concentration head printed '0' (fourth), N = 2 [2] [pg/mL] | binding result [3] | Binder
1 | 0.133 | 0.000128 | 965000 | 2600 | 2340 | 3320 | 2560 | 3140 | 2790 | 2380 | 2070 | 1990 | 2000 | – | fully human TIM-3 antibody 215A8F2 (antibody, human IgG4, V domains shown, also called antibody number 4) VH: QVQLQQWGAGLLKPSETLSLTCTVYGGSFSGYYWNWIRQPPGKGLEWLGEINHSGSTNYNPSLKRRVTISVDTSKNQFSLKLSSVTAADTAVYYCARVYYYGPFDFWGQGTLVTVSS VL: not shown
2 | 2.58 | 0.00313 | 1.22e+06 | 2540 | 2750 | 3110 | 2860 | 3050 | 3130 | 2130 | 2050 | 2200 | 2240 | – | fully human TIM-3 antibody 18D2H2 (antibody, human IgG4, V domains shown, also called antibody number 2) VH: EVQLVESGGDLVQPGGSLRLSCAASGFTFSTYWMTWVRQAPGRGLEWVANIKQDGSAKYYVDSVKGRFTLSRDDAKNSLYLQMNSLRAEDTAVYYCARGSNWFDYWGQGTLVTVSS VL: ETVMTQSPATLSVSPGERATLSCRANQNVYSNLAWYQQKPGQAPRLLIYDASTRATGFPARFSGSGSGTEFTLTISSLQSEDFAVYYCQQYNNWPLTFGGGTKVEIK
3 | 1.05 | 0.0012 | 1.15e+06 | 2890 | 2900 | 3050 | 3830 | 3520 | 3630 | 1820 | 2040 | 2130 | 2300 | – | fully human TIM-3 antibody 34B6D8 (antibody, human IgG4, V domains shown, also called antibody number 5) VH: EVQLVESGGGLVQPGGSLRLSCAASGFTFSTYWMTWVRQAPGKRLEWVANIKQGGGDKYYVDSVKGRFTISTDNAKNSLYLQMNSLRAEDTAVYYCARGSNWFDPWGQGTLVTVSS VL: EIVMTQSPATLSMSPGERATLSCRASQSVYDNLAWYQQKPGQAPRLLIYGASTRATGIPARFSGSGSGTEFTLTISSLQSEDFALYYCQQYTHWPITFGQGTRLEIK
4 | 2.48 | 0.00397 | 1.6e+06 | 3210 | 2870 | 3550 | 3610 | 3960 | 3660 | 2150 | 2100 | 2310 | 2050 | – | fully human TIM-3 antibody 57F4E5 (antibody, human IgG4, V domains shown, also called antibody number 7) VH: EVQLVESGGGLVQPGGSLRLSCAASGFTFSSYWMSWVRQAPGKGLEWVANIKQDGSEKYYVDSVKGRFTISRDSAKNSLYLQMNSLRAEDTAMYFCARDSNFFDYWGQGTLVTVSS VL: ETVMTQSPATLSVSPGERATLSCRASQSVSSNLAWYQRKPGQAPRLLIYFSSTRATGIPARFSGSGSGTEFTLTISSLQSEDFAVYYCQQYNNWPLTFGGGTKVEIK
5 | 4.05 | 0.00483 | 1.19e+06 | 2220 | 2550 | 3200 | 3230 | 3400 | 3910 | 1810 | 2120 | 2030 | 2260 | – | fully human TIM-3 antibody 134H3G6 (antibody, human IgG4, V domains shown, also called antibody number 3) VH: EVQLVESGGGLVQPGGSLRLSCAASGFTFSNSWMTWVRQAPGKGLEWVANIKQAGTEKYYVDSVKGRFTISRDNAKNSLYLQMNSLRAEDTAVYYCNSGSNYFDYWGQGTLVTVSS VL: EIVMTQSPATLSVSPGERATLSCRARQNFYSNLAWYQQKPGQAPRLLIYGASTRATGIPARFSGSGSGTEFTLTISSLQSEDFAVYYCQQYNNWPLTFGGGTKVEIK
6 | – | – | – | – | – | – | – | – | – | – | – | – | – | no binding (tested: 66.667 nM) | 34B6D8 fully human TIM-3 antibody (human IgG4, kappa) (antibody, V domains shown) VH: EVQLVESGGGLVQPGGSLRLSCAASGFTFSTYWMTWVRQAPGKRLEWVANIKQGGGDKYYVDSVKGRFTISTDNAKNSLYLQMNSLRAEDTAVYYCARGSNWFDPWGQGTLVTVSS VL: EIVMTQSPATLSMSPGERATLSCRASQSVYDNLAWYQQKPGQAPRLLIYGASTRATGIPARFSGSGSGTEFTLTISSLQSEDFALYYCQQYTHWPITFGQGTRLEIK
7 | 1.46 | 0.00155 | 1.06e+06 | 2710 | 2710 | 3400 | 3600 | 3500 | 4120 | 1840 | 2100 | 2090 | 1950 | – | fully human TIM-3 antibody 39E5H1 (antibody, human IgG4, V domains shown, also called antibody number 6) VH: EVQLVESGGGLVQPGGSLRLSCAASGFTFSSYWMSWVRQAPGKGLEWVANIKRGGSERYYVDSVKGRFTISGDNAKNSVYLQMNSLRAEDTAVYYCARGSNWFDPWGQGTLVTVSS VL: ETVMTQSPAILSVSPGERATLSCRASQSVYSNLAWYQQKLGQAPRLLIYDASTRATGIPARFSGSGSGTEFTLTISSLQSEDFAVYYCQQYNNWPITFGQGTRLEIK
8 | 1.01 | 0.00113 | 1.11e+06 | 3150 | 3220 | 3330 | 3220 | 3340 | 3890 | 2180 | 2090 | 2250 | 2160 | – | fully human TIM-3 antibody 7A4F10 (antibody, human IgG4, V domains shown, also called antibody number 1) VH: EVQLLESGGGLVQPGGSLRLSCAASGFTFRTHLISWVRQAPGKGLEWVAAITGSGGSTYYADSVKGRFIISRDNSKNTLFLQMNSLRAEDTAVYYCAKDGGSGSYDDFWGQGTLVTVSS VL: ETVLTQSPVTLSLSPGERATLSCRASQSVGSYLAWYQQKPGQAPRLLIYDASNRATGIPARFSGSGSGTDFTLTISSLEPEDFAVYYCQQRSNWPPTFGQGTKVEIK
